This is an account of results in the supplement of paper PMC7877785.

± gives the uncertainty stated by the source.

This series is described as follows: self-splicing fitness, log relative to wild type (ln ratio); higher = more splicing; Tetrahymena group I intron in knt gene, E. coli kanamycin selection, DiMSum; sequences stand for … in CUCUCU…GGAGGGAAAAGUUAUCAGGCAUGCACCUGGUAGCUAGUCUUUAAACCAAUAGAUUGCAUCGGUUUAAAAGGCAAGACCGUCAAAUUGCGGGAAAGGGGUCAACAGCCGUUCAGUACCAAGUCUCAGGGGAAACUUUGAGAUGGCCUUGCAAAGGGUAUGGUAAUAAGCUGACGGACAUGGUCCUAACCACGCAGCCAAGUCCUAAGUCAACAGAUCUUCUGUUGAUAUGGAUGCAGUUCACAGACUAAAUGUCGGUCGGGGAAGAUGUAUUCUUCUCAUAAGAUAUAGUCGGACCUCUCCUUAAUGGGAGCUAGCGGAUGAAGUGAUGCAACACUGGAGCCGCUGGGAACUAAUUUGUAUGCGAAAGUAUAUUGAUUAGUUUUGGAGUACUCGUGGUCG
In short, it runs like this: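 A randomised library covering all eight P1ex-region intron nucleotides was built with the intron in the knt kanamycin-resistance gene on pET-22b(+) and held in E. coli BL21(DE3). Cells were grown overnight at 37°C or 30°C on LB agar, with or without 25 μg/mL kanamycin, plus 100 μg/mL carbenicillin, 50 μM IPTG and 0.2% rhamnose, and pooled colonies were amplicon-sequenced on an Illumina HiSeq 2500. DiMSum fitness is the error-weighted combination of wild-type-normalised replicate fold changes, kanamycin versus none.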

For the sequence CACGAGCAAUAUUACGGCCC, the “self-splicing fitness (ln)” value reads like this: (30 °C) -3.09 ± 0.28; (37 °C) -2.95 ± 0.36.
For CCGAAGCAAUAUUACGCGUG the same measures were -3.05 ± 0.14 and -2.56 ± 0.13.
On to UUCAAGCAAUAUUACGUUAG, for which the “self-splicing fitness (ln)” value reads like this: (30 °C) -3.23 ± 0.12; (37 °C) -1.32 ± 0.089.
For CAUCAGCAAUAUUACGACGG the same measures were -0.186 ± 0.085 and -0.0315 ± 0.1.
With GUUGAGCAAUAUUACGGCCA, the “self-splicing fitness (ln)” value (37 °C) is -0.675 ± 0.24.
As for CGCAAGCAAUAUUACGGCAA, the “self-splicing fitness (ln)” value (30 °C) was -1.41 ± 0.1 and the “self-splicing fitness (ln)” value (37 °C) is -0.0385 ± 0.081.
For AACGAGCAAUAUUACGUUCA the same measures were -2.32 ± 0.17 and -1.87 ± 0.23.
For GGUCAGCAAUAUUACGUACG the same measures were 0.123 ± 0.08 and -0.609 ± 0.082.
On to ACGGAGCAAUAUUACGGGAG, for which the “self-splicing fitness (ln)” value is, setting by setting: (30 °C) -3.09 ± 0.37; (37 °C) -1.65 ± 0.24.
In the case of ACUCAGCAAUAUUACGUCUU, the “self-splicing fitness (ln)” value is -0.765 ± 0.046 (30 °C) and 0.0108 ± 0.062 (37 °C).
For ACGAAGCAAUAUUACGGAGG the same measures were -2.97 ± 0.16 and -1.69 ± 0.14.
For UCAUAGCAAUAUUACGAUUC the same measures were -2.39 ± 0.18 and -2.6 ± 0.33.
For GGUGAGCAAUAUUACGAGAU, the “self-splicing fitness (ln)” value (37 °C) was -2.44 ± 0.24.
As to UGUAAGCAAUAUUACGGACG, the “self-splicing fitness (ln)” value (30 °C) is -0.142 ± 0.11 and the “self-splicing fitness (ln)” value (37 °C) was 0.762 ± 0.14.
For GUAAAGCAAUAUUACGUUUC, the “self-splicing fitness (ln)” value is, setting by setting: (30 °C) -2.07 ± 0.16; (37 °C) -1.03 ± 0.22.
For CCUCAGCAAUAUUACGUUAG the same measures were -3.27 ± 0.15 and -2.14 ± 0.14.
As to AGCGAGCAAUAUUACGAUGA, the “self-splicing fitness (ln)” value (30 °C) is -2.57 ± 0.44.
Take GUGAAGCAAUAUUACGUUUG: the “self-splicing fitness (ln)” value runs as follows: (30 °C) -2.25 ± 0.09; (37 °C) -1.85 ± 0.12.
For CCCCAGCAAUAUUACGCAGA the same measures were -4.17 ± 0.28 and -3.54 ± 0.21.
For GGCCAGCAAUAUUACGUUCG the same measures were -2.66 ± 0.12 and -1.75 ± 0.11.
For AAUAAGCAAUAUUACGUUCA the same measures were -0.963 ± 0.084 and -0.348 ± 0.12.
As for UCAUAGCAAUAUUACGAAUA, the “self-splicing fitness (ln)” value was -2.82 ± 0.28 (30 °C) and -1.04 ± 0.28 (37 °C).
For CCACAGCAAUAUUACGGACU the same measures were -3.9 ± 0.15 and -2.95 ± 0.14.
Consider GGACAGCAAUAUUACGAUCG, for which the “self-splicing fitness (ln)” value was -0.492 ± 0.099 (30 °C) and 0.519 ± 0.11 (37 °C).
For UGACAGCAAUAUUACGGUGG the same measures were -1.56 ± 0.064 and -0.331 ± 0.082.
Consider UGGGAGCAAUAUUACGUUAA, for which the “self-splicing fitness (ln)” value (30 °C) is -2.76 ± 0.33.
Take UGGAAGCAAUAUUACGGGCU: the “self-splicing fitness (ln)” value (30 °C) is -3.13 ± 0.27 and the “self-splicing fitness (ln)” value (37 °C) was -1.32 ± 0.2.
For CACCAGCAAUAUUACGACUU, the “self-splicing fitness (ln)” value runs as follows: (30 °C) -3.4 ± 0.14; (37 °C) -2.69 ± 0.13.
For AGUUAGCAAUAUUACGGUAA the same measures were -2.21 ± 0.17 and -1.53 ± 0.12.
On to CCCUAGCAAUAUUACGGAUA, for which the “self-splicing fitness (ln)” value (37 °C) was -2.73 ± 0.26.
For the sequence CGAAAGCAAUAUUACGAAUA, the “self-splicing fitness (ln)” value is, setting by setting: (30 °C) -2.47 ± 0.29; (37 °C) -2.14 ± 0.2.
For the sequence AAGAAGCAAUAUUACGCUCC, the “self-splicing fitness (ln)” value is, setting by setting: (30 °C) -2.37 ± 0.2; (37 °C) -0.643 ± 0.18.
With CCGAAGCAAUAUUACGAACC, the “self-splicing fitness (ln)” value (30 °C) was -3.42 ± 0.48.
Consider AAGCAGCAAUAUUACGAUGG, for which the “self-splicing fitness (ln)” value reads like this: (30 °C) -2.99 ± 0.13; (37 °C) -1.84 ± 0.14.
For AUCAAGCAAUAUUACGACUG the same measures were -1.59 ± 0.11 and -1.27 ± 0.13.
For GCAGAGCAAUAUUACGGAUC the same measures were -2.59 ± 0.34 and -1.6 ± 0.29.
For AUGGAGCAAUAUUACGGAAA the same measures were -3.4 ± 0.37 and -2.35 ± 0.29.
Take UGUUAGCAAUAUUACGGGCG: the “self-splicing fitness (ln)” value was -0.142 ± 0.11 (30 °C) and 0.388 ± 0.12 (37 °C).
Consider CGAUAGCAAUAUUACGGGGA, for which the “self-splicing fitness (ln)” value (37 °C) is -2.27 ± 0.28.
Regarding AGUUAGCAAUAUUACGGCUU, the “self-splicing fitness (ln)” value (30 °C) is -2.22 ± 0.23 and the “self-splicing fitness (ln)” value (37 °C) was -1.04 ± 0.22.
For AAAUAGCAAUAUUACGGCCA the same measures were -0.522 ± 0.15 and -0.523 ± 0.18.
For AAACAGCAAUAUUACGGACA the same measures were -1.54 ± 0.092 and -1.1 ± 0.096.
For GUUCAGCAAUAUUACGUUGA the same measures were -3.12 ± 0.28 and -1.57 ± 0.17.
As for AACGAGCAAUAUUACGAAUG, the “self-splicing fitness (ln)” value runs as follows: (30 °C) -4.03 ± 0.28; (37 °C) -3.18 ± 0.25.
Take GUCUAGCAAUAUUACGUCAA: the “self-splicing fitness (ln)” value runs as follows: (30 °C) -1.4 ± 0.067; (37 °C) -0.997 ± 0.085.
Turning to CGGAAGCAAUAUUACGCGCC, the “self-splicing fitness (ln)” value (37 °C) is -0.393 ± 0.27.
Consider UCCCAGCAAUAUUACGUAGU, for which the “self-splicing fitness (ln)” value runs as follows: (30 °C) -0.707 ± 0.046; (37 °C) -0.458 ± 0.066.
Take CUGAAGCAAUAUUACGACCC: the “self-splicing fitness (ln)” value (30 °C) was -2.58 ± 0.38.
For AUUUAGCAAUAUUACGACCC, the “self-splicing fitness (ln)” value by setting is: (30 °C) -1.16 ± 0.28; (37 °C) -0.0521 ± 0.3.
As to UAAGAGCAAUAUUACGCACC, the “self-splicing fitness (ln)” value (37 °C) is -1.93 ± 0.41.
Regarding ACCAAGCAAUAUUACGCGGA, the “self-splicing fitness (ln)” value is -1.11 ± 0.068 (30 °C) and -0.537 ± 0.077 (37 °C).
For UGUGAGCAAUAUUACGGUCA the same measures were -0.959 ± 0.056 and -0.333 ± 0.069.
For UCUUAGCAAUAUUACGUUUA the same measures were -2.75 ± 0.33 and -2.57 ± 0.32.
For CGAUAGCAAUAUUACGGUGG the same measures were -1.03 ± 0.086 and -0.748 ± 0.09.
In the case of AAGGAGCAAUAUUACGACCU, the “self-splicing fitness (ln)” value is -0.0623 ± 0.16 (30 °C) and -0.475 ± 0.2 (37 °C).
In the case of ACGAAGCAAUAUUACGCAGU, the “self-splicing fitness (ln)” value runs as follows: (30 °C) -3.29 ± 0.17; (37 °C) -2.5 ± 0.2.
For ACAGAGCAAUAUUACGCGGA the same measures were -3.57 ± 0.29 and -2.62 ± 0.19.
For AUUAAGCAAUAUUACGACGC the same measures were -0.389 ± 0.11 and 0.175 ± 0.14.
For ACGCAGCAAUAUUACGAGGA the same measures were -2.8 ± 0.16 and -2.26 ± 0.17.
With GGAUAGCAAUAUUACGAUAC, the “self-splicing fitness (ln)” value is -1.23 ± 0.13 (30 °C) and -1.8 ± 0.16 (37 °C).
For the sequence UGCCAGCAAUAUUACGCUAU, the “self-splicing fitness (ln)” value is -0.882 ± 0.16 (30 °C) and -1.13 ± 0.16 (37 °C).
Regarding UCACAGCAAUAUUACGGGAA, the “self-splicing fitness (ln)” value reads like this: (30 °C) -1.98 ± 0.1; (37 °C) -0.945 ± 0.089.
For GCUGAGCAAUAUUACGAUAA the same measures were -3.51 ± 0.4 and -3.27 ± 0.35.
For GCGUAGCAAUAUUACGCGCU the same measures were -3.31 ± 0.2 and -2.84 ± 0.35.
For AUGGAGCAAUAUUACGAAAG the same measures were -2.94 ± 0.24 and -2.11 ± 0.32.
Consider AAGGAGCAAUAUUACGAGAC, for which, where the note is “30 °C”, the “self-splicing fitness (ln)” value is -2.03 ± 0.44.
Regarding UUCUAGCAAUAUUACGUCAC, the “self-splicing fitness (ln)” value (37 °C) was -2.28 ± 0.37.
For UCAGAGCAAUAUUACGAUUU, the “self-splicing fitness (ln)” value runs as follows: (30 °C) -3.82 ± 0.3; (37 °C) -1.67 ± 0.22.
For CGCCAGCAAUAUUACGGUAG the same measures were -2.51 ± 0.11 and -2.03 ± 0.18.
For GUUGAGCAAUAUUACGGUUU the same measures were -4.2 ± 0.33 and -2.73 ± 0.32.
For UUCAAGCAAUAUUACGUGAA the same measures were -0.675 ± 0.089 and -0.479 ± 0.12.
For the sequence AGGUAGCAAUAUUACGUCUG, the “self-splicing fitness (ln)” value was -0.641 ± 0.013 (30 °C) and -0.161 ± 0.033 (37 °C).
For GAGCAGCAAUAUUACGUGCG the same measures were -1.65 ± 0.12 and -1.25 ± 0.11.
For GUGAAGCAAUAUUACGUUGG the same measures were -2.81 ± 0.13 and -1.65 ± 0.12.
For GCGGAGCAAUAUUACGUCGG the same measures were -2.62 ± 0.12 and -1.78 ± 0.17.
As to GUGAAGCAAUAUUACGGUAC, the “self-splicing fitness (ln)” value is -0.508 ± 0.12 (30 °C) and -0.311 ± 0.15 (37 °C).
For GCGUAGCAAUAUUACGGUGU the same measures were -3.33 ± 0.21 and -1.48 ± 0.14.
Take CUGCAGCAAUAUUACGCGCA: the “self-splicing fitness (ln)” value is, setting by setting: (30 °C) -3.37 ± 0.15; (37 °C) -2.13 ± 0.15.
As to GUUUAGCAAUAUUACGUAGG, the “self-splicing fitness (ln)” value reads like this: (30 °C) -2.77 ± 0.13; (37 °C) -0.822 ± 0.14.
